Measurements as given in publication PMC3988174.

B1: Protein LURP-one-related 15 Protein (natural protein)
chain: MEQPYVYAYPQGSGPSGAPTPQAGGVVVDPKYCAPYPIDMAIVRKMMSLTDGNFVITDVNGNLLFKVKEPVFGLHDKRVLLDGSGTPVVTLREKMVSMHDRWQVFRGGSTDQRDLLYTVKRSSMLQLKTKLDVFLGHNKDEKRCDFRVKGSWLERSCVVYAGESDAIVAQMHRKHTVQSVFLGKDNFSVTVYPNVDYAFIASLVVILDDVNREDRAA
B2: Putative 3-dehydroquinate synthase (natural protein)
chain: MAANTISLSNVAASKNLNSFQSRAFIAPPTIFFPVASAKSKPGELSLSSTTLSRSRVRAGASQLMNEPLNDQRSISSPTVVEVDLGDRSYPIYIGAGLLDHSELLQRHVHGKRVLVVTNDRVAPLYLDKTIDALTRGNPNVTVESVILPDGEKYKDMDTLMKVFDKAIESRLDRRCTFVALGGGVIGDMCGYAAASYLRGVNFIQIPTTVMAQVDSSVGGKTGINHRLGKNLIGAFYQPQCVLVDTDTLNTLPDREMASGLAEVIKYGLIRDAEFFEWQEKNIEALLARDPAALAFAIKRSCENKADVVSQDEKESGLRATLNLGHTFGHAIETGFGYGEWLHGEAVAAGTVMAVDMSYRLGWIDESIVKRVNKILVRAKLPTTPPESMTVSMFKSIMAVDKKVADGLLRLILLKGPLGNCVFTGDYDREALDATLRAFSKS
B3: Translationally controlled tumor protein (natural protein)
chain: MLVYQDLLTGDELLSDSFPYKEIENGILWEVEGKWVTVGAVDVNIGANPSAEEGGEDEGVDDSTQKVVDIVDTFRLQEQPTYDKKGFIAYIKKYIKLLTPKLSEEDQAVFKKGIEGATKFLLPRLSDFQFFVGEGMHDDSTLVFAYYKEGSTNPTFLYFAHGLKEVKC
B4: Tryptophan synthase, beta subunit 1 (natural protein)
chain: MAASGTSATFRASVSSAPSSSSQLTHLKSPFKAVKYTPLPSSRSKSSSFSVSCTIAKDPPVLMAAGSDPALWQRPDSFGRFGKFGGKYVPETLMHALSELESAFYALATDDDFQRELAGILKDYVGRESPLYFAERLTEHYRRENGEGPLIYLKREDLNHTGAHKINNAVAQALLAKRLGKKRIIAETGAGQHGVATATVCARFGLECIIYMGAQDMERQALNVFRMRLLGAEVRGVHSGTATLKDATSEAIRDWVTNVETTHYILGSVAGPHPYPMMVRDFHAVIGKETRKQALEKWGGKPDVLVACVGGGSNAMGLFHEFVNDTEVRMIGVEAAGFGLDSGKHAATLTKGDVGVLHGAMSYLLQDDDGQIIEPHSISAGLDYPGVGPEHSFFKDMGRAEYYSITDEEALEAFKRVSRLEGIIPALETSHALAYLEKLCPTLSDGTRVVLNFSGRGDKDVQTVAKYLDV
B5: Fe superoxide dismutase 1 (natural protein)
chain: MAASSAVTANYVLKPPPFALDALEPHMSKQTLEFHWGKHHRAYVDNLKKQVLGTELEGKPLEHIIHSTYNNGDLLPAFNNAAQAWNHEFFWESMKPGGGGKPSGELLALLERDFTSYEKFYEEFNAAAATQFGAGWAWLAYSNEKLKVVKTPNAVNPLVLGSFPLLTIDVWEHAYYLDFQNRRPDYIKTFMTNLVSWEAVSARLEAAKAASA
B6: Chloroplast chaperonin 10 (natural protein)
chain: MASTFVCSLPNPFFAFPVKATTPSTANHTLLGSRRGCLRIKAISTKWEPTKVVPQADRVLVRLEDLPIKSSGGVLLPKAAVKFERYLTGEIISVGSEVGQQVGPGKRVLFSDVSAYEVDLGTDARHCFCKESDLLALVE
B7: 5′-Adenylylsulfate reductase 2 (natural protein)
chain: MALAVTSSSTAISGSSFSRSGASSESKALQICSIRLSDRTHLSQRRYSMKPLNAESHSRSESWVTRASTLIAPEVEEKGGEVEDFEQLAKKLEDASPLEIMDKALERFGDQIAIAFSGAEDVALIEYARLTGKPFRVFSLDTGRLNPETYRLFDAVEKQYGIRIEYMFPDAVEVQALVRNKGLFSFYEDGHQECCRVRKVRPLRRALKGLKAWITGQRKDQSPGTRSEIPIVQVDPVFEGLDGGVGSLVKWNPLANVEGADVWNFLRTMDVPVNALHAQGYVSIGCEPCTRPVLPGQHEREGRWWWEDAKAKECGLHKGNIKEEDGAADSKPAAVQEIFESNNVVALSKGGVENLLKLENRKEAWLVVLYAPWCPFCQAMEASYIELAEKLAGKGVKVAKFRADGEQKEFAKQELQLGSFPTILLFPKRAPRAIKYPSEHRDVDSLMSFVNLLR
B8: Lactoylglutathionelyase (natural protein)
chain: MASEARESPANNPGLSTNRDEATKGYIMQQTMFRIKDPKASLDFYSRVLGMSLLKRLDFSEMKFSLYFLGYEDTTTAPTDPTERTVWTFGQPATIELTHNWGTESDPEFKGYHNGNSEPRGFGHIGVTVDDVHKACERFEELGVEFAKKPNDGKMKNIAFIKDPDGYWIEIFDLKTIGTTTVNAA
B9: MPBQ/MSBQ methyl transferase (natural protein)
chain: MASLMLNGAITFPKGLGSPGSNLHARSIPRPTLLSVTRTSTPRLSVATRCSSSSVSSSRPSAQPRFIQHKKEAYWFYRFLSIVYDHVINPGHWTEDMRDDALEPADLSHPDMRVVDVGGGTGFTTLGIVKTVKAKNVTILDQSPHQLAKAKQKEPLKECKIVEGDAEDLPFPTDYADRYVSAGSIEYWPDPQRGIREAYRVLKIGGKACLIGPVYPTFWLSRFFSDVWMLFPKEEEYIEWFKNAGFKDVQLKRIGPKWYRGVRRHGLIMGCSVTGVKPASGDSPLQLGPKEEDVEKPVNNPFSFLGRFLLGTLAAAWFVLIPIYMWIKDQIVPKDQPI
B10: Sugar transporter EDR6-like 7 (natural protein)
chain: MSKASDAVREPLVDKNMAGSKPDQPWMVYLSTFVAVCGSFAFGSCAGYSSPAQAAIRNDLSLTIAEFSLFGSLLTFGAMIGAITSGPIADLVGRKGAMRVSSAFCVVGWLAIIFAKGVVALDLGRLATGYGMGAFSYVVPIFIAEIAPKTFRGALTTLNQILICTGVSVSFIIGTLVTWRVLALIGIIPCAASFLGLFFIPESPRWLAKVGRDTEFEAALRKLRGKKADISEEAAEIQDYIETLERLPKAKMLDLFQRRYIRSVLIAFGLMVFQQFGGINGICFYTSSIFEQAGFPTRLGMIIYAVLQVVITALNAPIVDRAGRKPLLLVSATGLVIGCLIAAVSFYLKVHDMAHEAVPVLAVVGIMVYIGSFSAGMGAMPWVVMSEIFPINIKGVAGGMATLVNWFGAWAVSYTFNFLMSWSSYGTFLIYAAINALAIVFVIAIVPETKGKTLEQIQAIVNP
B11: Photosystem II subunit T (natural protein)
chain: MASMTMTATFFPAVAKVPSATGGRRLSVVRASTSDNTPSLEVKEQSSTTMRRDLMFTAAAAAVCSLAKVAMAEEEEPKRGTEAAKKKYAQVCVTMPTAKICRY
B12: CCR-like protein (natural protein)
chain: MQGALFIKPTILLPLPSSVSSPKLTFLLPHATKASRLSSLRSNNSSSSSSLTSDPNTVDYNSSILSVFPAEACEVISGYACSADIYPEVKLDTKPVSRPVASEPVDREYEEYNSPKTVFREEACDDLGGEFCEPDFQKDAN
B13: Geranylgeranyl reductase (natural protein)
chain: MLFSGSAIPLSSFCSLPEKPHTLPMKLSPAAIRSSSSSAPGSLNFDLRTYWTTLITEINQKLDEAIPVKHPAGIYEAMRYSVLAQGAKRAPPVMCVAACELFGGDRLAAFPTACALEMVHAASLIHDDLPCMDDDPVRRGKPSNHTVYGSGMAILAGDALFPLAFQHIVSHTPPDLVPRATILRLITEIARTVGSTGMAAGQYVDLEGGPFPLSFVQEKKFGAMGECSAVCGGLLGGATEDELQSLRRYGRAVGMLYQVVDDITEDKKKSYDGGAEKGMMEMAEELKEKAKKELQVFDNKYGGGDTLVPLYTFVDYAAHRHFLLPL
B14: Small GTP-binding protein (natural protein)
chain: MAMASAMDLSSPPTFFLSGTSTSSPSLRRLSSISVSGFRRHSNRKLQILCQATAGTEPQSGLSVSGSKLAARSGQDRLLKVPISNIRNFSIIAHIDHGKSTLADKLLQVTGTVQNRDMKEQFLDNMDLERERGITIKLQAARMRYVYEDTPFCLNLIDTPGHVDFSYEVSRSLAACEGALLVVDASQGVEAQTLANVYLALENNLEIIPVLNKIDLPGAEPEKVLREIEEVIGLDCSKAIFCSAKEGIGITEILDAIVQRIPAPLDTAGKPLRALIFDSYYDPYRGVIVYFRVIDGKVKKGDRIFFMASGKDYFADEVGVLSPNQIQVDELYAGEVGYIAASVRSVADARVGDTITHYSRKAESSLPGYEEATPMVFCGLFPVDADQFPDLRDALEKLQLNDAALKFEPETSSAMGFGFRCGFLGLLHMEIVQERLEREYNLNLITTAPSVVYRVNSVNGDTTLCSNPSRLPDPGQRKSVEEPYVKIELLTPKDYIGALMELAQERRGEFKEMKYIAENRASILYELPLAEMVGDFFDQLKSRTKGYASMEYSVIGYRESDLIKLDILINAEMVEPLSTIVHRDKAYSVGRALTQKLKELIPRQMFKVPIQACIGSKVIASEALSAIRKDVLAKCYGGDISRKKKLLKKQAAGKKRMKAIGRVDVPQEAFMAVLKLEREVL
B15: GLNB1-like protein (natural protein)
chain: MAASMTKPISITSLGFYSDRKNIAFSDCISICSGFRHSRPSCLDLVTKSPSNNSRVLPVVSAQISSDYIPDSKFYKVEAIVRPWRIQQVSSALLKIGIRGVTVSDVRGFGAQGGSTERHGGSEFSEDKFVAKVKMEIVVKKDQVESVINTIIEGARTGEIGDGKIFVLPVSDVIRVRTGERGEKAEKMTGDMLSPS
B16: Oxygen-evolving enhancer protein 3-2 (natural protein)
chain: MAQAVTSMAGLRGASQAVLEGSLQINGSNRLNISRVSVGSQRTGLVIRAQQNVSVPESSRRSVIGLVAAGLAGGSFVKAVFAEAIPIKVGGPPLPSGGLPGTDNSDQARDFSLALKDRFYIQPLSPTEAAARAKDSAKEIINVKSFIDKKAWPYVQNDLRLRASYLRYDLNTVISAKPKEEKQSLKDLTAKLFQTIDNLDYAARSKSSPDAEKYYSETVSSLNNVLAKLG
B17: Glutathione S-transferase PHI 2 (natural protein)
chain: MAGIKVFGHPASIATRRVLIALHEKNLDFELVHVELKDGEHKKEPFLSRNPFGQVPAFEDGDLKLFESRAITQYIAHRYENQGTNLLQTDSKNISQYAIMAIGMQVEDHQFDPVASKLAFEQIFKSIYGLTTDEAVVAEEEAKLAKVLDVYEARLKEFKYLAGETFTLTDLHHIPAIQYLLGTPTKKLFTERPRVNEWVAEITKRPASEKVQ

These binders were tested against atToc132 G-domain bait (Arabidopsis thaliana) (UniProt Q9SLF3) (assay: two-hybrid; pairwise split-ubiquitin yeast two-hybrid of isolated NubG-preys with Toc159G, Toc132G or Toc132AG bait in NMY51; growth on SD-LWHA (3-AT) and quantitative β-Gal assay, activity relative to a reference bait set to 100%).
atToc132 G-domain bait (Arabidopsis thaliana), sequence (Q9SLF3 456-794): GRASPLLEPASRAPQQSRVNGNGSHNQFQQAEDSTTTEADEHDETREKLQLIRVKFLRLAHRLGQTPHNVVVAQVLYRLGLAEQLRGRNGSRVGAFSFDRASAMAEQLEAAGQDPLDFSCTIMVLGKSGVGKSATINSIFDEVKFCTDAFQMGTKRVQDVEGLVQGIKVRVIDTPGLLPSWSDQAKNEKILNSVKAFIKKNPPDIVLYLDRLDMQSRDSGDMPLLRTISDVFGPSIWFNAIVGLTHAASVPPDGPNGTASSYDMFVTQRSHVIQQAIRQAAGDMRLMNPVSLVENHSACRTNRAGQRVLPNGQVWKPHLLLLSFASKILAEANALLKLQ

% increase in strength of interaction (β-Gal) with 132G against 159G [%]	Binder
29.9	B1
27.8	B2
41	B3
19.6	B4
99.5	B5
42.1	B6
44.7	B7
91.5	B8
30.7	B9
49.3	B10
28.9	B11
74.4	B12
88	B13
41.1	B14
39.8	B15
20	B16
52	B17
